To fix the notation:
B1: TRL847 (antibody, V domains shown)
VH: QVQLVESGGGLVQPGGSLRLSCVASGFTFSRFSMNWVRQAPGMGLEWVSYISDTGRTIYYADSVKGRFTISRDNDKNTLYLQMKSLRDEDSAFYYCARDPDTPFVRAFDSWGQGVLVTVSS
VL: DIVMTQSPSFLSASVGDRVTITCRTSQVISSYLAWYQQRPGKAPKLLIYAASTLQSGVPSRFSGSGSGTRFSLTISNLQPEDFATYFCQQLTTYPPITFGQGTRLEIK
notes: also called MAb TRL847
B2: TRL854 (antibody, V domains shown)
VH: QVQLVESGAEVKKPGASVRVSCKGSGYTFTAYHMHWVRQAPGQGFEWVGWINPNSGATYYTSTFEGRVTMTRDTSITTAYMELSSLRSDDTAVYYCATDIVVERDASLGGFNSYGMDVWGQGTTVTVSS
VL: DIEMTQSPLSLPVTPGEPASISCRSSQSLLHSNGYNHLAWYLQKPGRSPHLLIYLASTRASGVPDRFSGSGSGTDFTLKISRVEAEDVGIYYCMQSLQTSITFGQGTRLEIK
notes: also called MAb TRL854
B3: TRL848 (antibody, V domains shown)
VH: QVQLLESGGDVVQPGTSLRLSCAASGFSLWTSGMHWVRQAPGKGLEWVAVMSYDETKKYYADSVRGRFSISRDNSRNTLYLQMNSLRVEDTAVYFCAKPRLDYLDYFHAADSWGQGTLVSVSS
VL: DIVLTQPPSVSVAPGQTATITCGGNYIGSKSVNWYQQRPGHAPVLVVYDDSDRPSGIPDRFSGSNSRSTATTATLTISRVEAGDEADYYCQVWETSEDLWVFGGGTKLTVL
notes: also called MAb TRL848
B4: TRL845 (antibody, V domains shown)
VH: QVQLVQSGGDLVQPGGSLRLSCAASGFTFSRYSMNWVRQAPGMGLEWVAYISDTSRTIYYADSVKGRFTISRDNAKNSLYLQMKSLRDEDTAVYYCARDPDTPFVRAFDSWGQGTLVTVSS
VL: DIVLTQSPSFLSASVGDRVTITCRASQLISSYFAWYQQKPGKPPKLLIYAASTLQSGVPSRFSGSGSGTQFSLTISSLQPEDFATYYCQQLNSYPPITFGQGTRLEIK
notes: also called MAb TRL845
B5: TRL849 (antibody, V domains shown)
VH: QVQLVESGPGLVKPSQTLSLTCTVSGGSISNGGYHWSWIRQHPGKGLEWIGNIYYRGSTFYDPSLKSRVTISVDTSKSQFSLKLTSVTAADTAVYYCARMPLANYDLLTGLYIGAFDLWGQGTMVTVSS
VL: DIVLTQSPATLSVSPGERATLSCRASQSVNRNLAWFQQIPGQAPRLLIFDASTRAADIPARFSGGGSGAEFTLTVSSLQPEDFAVYYCQQYDKWPPGFGQGTKVEIK
notes: also called MAb TRL849

One experiment has as its target T1, hemagglutinin (HA) of influenza B virus B/Florida/04/2006 (Yamagata lineage) (Influenza B virus B/Florida/4/2006, UniProt E1TVD5, strain).
T1 construct: also called B/Florida/4/2006 HA; HA of B/Florida/04/2006; source: bought: Sino Biological
Description: ELISA. Particulars: both partners purified. In general terms: In an ELISA, binding on a coated surface is turned into a signal by an enzyme label.
For B1, the binding result is on record as “binds”.
The same measure, in the same setting: to B2 belongs “binds”; to B3, “binds”.

The target in another experiment is T2, hemagglutinin (HA) of influenza B virus B/Malaysia/2506/2004 (Victoria lineage) (Influenza B virus B/Malaysia/2506/2004; …, UniProt C0LT35, strain).
T2 construct: also called B/Malaysia/2506/2004 HA; source: bought: Protein Sciences
Description: ELISA. To be noted: both partners purified.
As to B1, the binding result is “binds”.
The same measure, in the same setting: to B2 belongs “binds”.
On to B3, for which the binding result was “binds”.
As to B4, the binding result is “binds”.
With B5, the binding result was “binds”.

In another experiment the target is T3, hemagglutinin (HA) of influenza B virus B/Victoria/2/1987 (Victoria lineage) (Influenza B virus B/Victoria/2/1987, UniProt P22092, strain).
T3 construct: also called B/Victoria/2/1987 HA; source: bought: Immune Tech
Description: ELISA. Particulars: both partners purified.
Regarding B1, the binding result is recorded as “binds”.
As for B2, the binding result is “binds”.
Take B3: the binding result is “binds”.
Still for that read-out and setting: the same measure for B4: “binds”; for B5: “binds”.

The target in a further experiment is T4, hemagglutinin (HA) of influenza B virus B/Brisbane/60/2008 (Victoria lineage) (Influenza B virus B/Brisbane/60/2008, UniProt C0LT35, strain).
T4 construct: also called B/Brisbane/60/2008 HA; source: bought: Immune Tech
Description: ELISA. Particulars: both partners purified.
On to B1, for which the binding result is “binds”.
Same read-out and setting: the same measure for B2: “binds”; for B3: “binds”.
On to B4, for which the binding result was “binds”.
For B5, the binding result is given as “binds”.

The record behind these values is publication PMC5923107 (Antimicrobial Agents and Chemotherapy, 2018).
